Measurements: US20240368275A1 (ELPIS BIOPHARMACEUTICALS, published 2024)

Legend:
[1] = target: T1, human Nectin4-Fc fusion protein (human, UniProt Q96NY8 32-349); test: ELISA, coated human Nectin4-Fc, scFv titrated, anti-Flag HRP
T1 construct: Recombinant protein coated in the scFv ELISA and captured on the anti-hFc chip in the scFv SPR; also called recombinant Nectin4-Fc fusion protein; human Nectin4-Fc protein; not shown: Fc part
T1 sequence (looked up): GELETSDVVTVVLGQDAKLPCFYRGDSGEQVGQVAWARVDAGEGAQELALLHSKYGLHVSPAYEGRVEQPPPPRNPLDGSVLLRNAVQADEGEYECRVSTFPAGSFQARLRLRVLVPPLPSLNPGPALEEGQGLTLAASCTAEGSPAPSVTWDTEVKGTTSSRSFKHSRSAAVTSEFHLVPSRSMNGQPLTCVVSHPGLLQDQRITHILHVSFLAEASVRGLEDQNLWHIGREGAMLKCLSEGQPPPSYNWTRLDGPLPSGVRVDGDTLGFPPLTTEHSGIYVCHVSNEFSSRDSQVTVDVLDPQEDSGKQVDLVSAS
Protocol: An ELISA assay was developed to determine the EC₅₀ of anti-Nectin4 antibodies. Briefly, 384 well plate was immobilized with human Nectin4-Fc at final concentration of 2 ug/mL in 1×PBS in total volume of 25 uL per well. The plate was incubated overnight at 4° C. followed by blocking with 80 uL of superblock per well for 1 hour. Purified anti-Nectin4 scFvs were 2-fold serial titrated from 200 nM. 25 uL was added to human Nectin4 immobilized wells and incubated for 1 hour with shaking. The Nectin4 binding was detected by adding 25 uL of anti-Flag HRP diluted at 1:5000 in 1×PBST. In between each step, the plate was washed 3 times with 1×PBST in a plate washer. The plate was then developed with 20 uL of TMB substrate for 5 mins and stopped by adding 20 uL of 2 N sulfuric acid. The plate was read at OD450 nm Biotek plate reader and then plotted in Prism 8.1 software.

[2] = target: T2, full-length human Nectin4 with C-terminal flag and Myc tags on CHO cells (human, UniProt Q96NY8 32-510); test: flow cytometry, scFv on Nectin4/CHO cells
T2 construct: whole, on cells; also called Nectin4/CHO; CHO/Nectin4; not shown: C-terminal flag and Myc tags of pCMV6-Entry vector
T2 sequence (looked up): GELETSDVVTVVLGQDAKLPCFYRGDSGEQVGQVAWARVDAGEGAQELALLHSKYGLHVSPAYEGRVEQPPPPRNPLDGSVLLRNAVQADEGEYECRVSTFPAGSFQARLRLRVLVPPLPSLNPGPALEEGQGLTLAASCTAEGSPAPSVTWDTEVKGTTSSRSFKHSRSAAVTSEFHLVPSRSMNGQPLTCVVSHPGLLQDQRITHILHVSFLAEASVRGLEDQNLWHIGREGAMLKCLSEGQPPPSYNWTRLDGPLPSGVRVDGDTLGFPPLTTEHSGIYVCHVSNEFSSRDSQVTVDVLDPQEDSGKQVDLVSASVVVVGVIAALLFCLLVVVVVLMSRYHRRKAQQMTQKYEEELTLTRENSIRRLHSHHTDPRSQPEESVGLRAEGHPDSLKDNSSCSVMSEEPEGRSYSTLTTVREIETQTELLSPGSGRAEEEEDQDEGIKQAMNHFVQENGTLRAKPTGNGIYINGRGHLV
Protocol: To determine whether anti-Nectin4 scFvs bind to Nectin4 expressing cells, 200 nM of purified anti-Nectin4 scFv antibodies were diluted in full medium and incubated with Nectin4/CHO and CHO cells in 96 wells plate on ice for 1 hour. Cells were spun down at 1200 rpm for 5 minutes at 4° C. to remove primary antibodies. Cells were then washed once with 200 uL of full medium per well. Samples were detected with premixed anti-His Biotin Streptavidin Alexa fluor 647 by adding 100 uL of diluted secondary antibody and incubated at 4° C. for 30 minutes in the dark. Samples were spun down at 1200 rpm for 5 minutes at 4° C. and washed twice with 200 uL of 1×PBS per well. Reconstituted samples in 200 uL of 1×PBS and read on Attune NxT cytometer. Analysis was done by Attune NxT software plotting the overlay histogram of anti-Nectin4 scFvs binding onto both negative and target cell lines.

[3] = target: T1, human Nectin4-Fc fusion protein; test: SPR Biacore T200, Nectin4-Fc captured on anti-hFc chip, scFv injected
Protocol: Kinetic analysis of anti-Nectin4 scFvs has been assessed by SPR technology with Biacore T200. The assay was run with Biacore T200 control software version 2.0. Anti-human Fc antibody was immobilized on flow cell 1 and 2 of CM5 sensor chip. For each cycle, 1 ug/mL of human Nectin4-Fc protein was captured for 60 seconds at flow rate of 10 ul/min on flow cell 2 in 1×HBSP buffer on anti-hFc sensor chip. 2-fold serial diluted HIS tag purified anti-Nectin4 scFv was injected onto both reference flow cell 1 and Nectin4-Fc captured flow cell 2 for 150 seconds at flow rate of 30 ul/min followed by wash for 300 seconds. The flow cells were then regenerated with Antibody regeneration buffer (GE) for 30 seconds at flow rate of 30 ul/mins. 8 concentration points from 300-0 nM was assayed per anti-Nectin4 scFv in a 96 well plate. The kinetics of scFvs binding to Nectin4 protein was analyzed with Biacore T200 evaluation software version 3.0. The specific binding response unit was derived from subtraction of binding to reference flow cell 1 from Nectin4 captured flow cell 2.

Binder	EC50 [1] [nM]	EC50 [2] [nM]	Kd [3] [nM]	koff [3] [s⁻¹]	kon [3] [M⁻¹ s⁻¹]
2021EP029-C04 scFv (scFv, V domains shown) VH: QLQLQQSGPGLVKPSQTLSLTCAISGDSVSSNRAAWSWIRQSPSRGLEWLGRTYYRSKWYNDYAVSVESRIIINPDTSKNQFSLQLNPVTPEDTAVYYCARGSFESTWLWGQGTLVTVSS VL: QAVVTQPHSVSESPGKTVTISCTRSGGSIANNYVHWYQQRPGSFPTALIYQDNQRRSGVPDRFSGSIDSSSNSASLTISGLKTEDEAEYYCQSFDNNNVVFGGGTQLTVL	0.857	0.001	–	–	–
2021EP032-D10 scFv (scFv, V domains shown) VH: EVQLVESGAEVKKPGSSVKVSCKASGGTFSSYAISWVRQAPGQGLEWMGGIIPIFGTANYAQKFQGRVAITADESTSTAYMELSSLRSEDTAVYYCARDLAIVYGSGSYYNHHPRIDYYYYGMDVWGQGTTVTVSS VL: QSVLTQPRSVSGSPGQSVTISCAGTSSDIGAYNYVSWYQQHPGKAPTLMINDVSKRPSGVPDRFSGSKSGNTASLTISGLQAEDEGDYYCFSYAGSYTLVFGGGTQLTVL	8.76	0.29	–	–	–
2021EP032-E06 scFv (scFv, V domains shown) VH: QVQLVESGAEVKKPGASVKVSCKASGYTFTGYYMHWVRQAPGQGLEWMGRINPNSGGTNYAQKFQGRFTISRDNSKTTLFLQMNSLRAEDTAVYYCAKADYQWVGAIFRLNAFDIWGQGTMVTVSS VL: VIWMTQSPSSLSASVGDRVTITCRASQGISNYLAWYQQKPGKVPKLLIYAASTLQSGVPSRFSGSGSGTDFTLTISSLQPEDVATYYCQKYNSAPYTFGQGTKLEIK	0.412	< 0.001	–	–	–
2020EP034-B09 scFv (scFv, V domains shown) VH: EVQLVQSGAEVKKPGASVKVSCKASGYTFTGYYMHWVRQAPGQGLEWMGRINPNSGGTNYAQKFQGRVTMTRDTSISTAYMELSGLRSDDTAVYFCARVTYNIGWYIDYWGQGTLVTVSS VL: QAVVTQPPSVSVAPGKTATITCGGNNIGSKGVHWYQQKPGQAPVLVIYYDTDRPSGIPERLSGSNSGNTATLTISRVEAGDEADYYCQVWDSSSDHPVFGGGTKLTVL	5.07	0.36	1.47	0.00018	122000
2020EP034-E01 scFv (scFv, V domains shown) VH: not shown VL: DVVMTQSPLSLPVTPGEPASMSCRSSESLLHRNGFNYLDWYVQRPGQSPKLLIYMGSYRASGVPDRFSGRGSGTDFALKISRVEAEDVGVYYCMQALQSPPLYTFGPGTKLEIK	–	> 50	10.9	0.000406	37000
2021EP023-D06 scFv (scFv, V domains shown, Purified scFv with C-terminal flag and 6xHis tag) VH: QVQLVESGAEVKKPGSSVKVSCKASGGTFSSYAISWVRQAPGQGLEWMGGIIPIFGTANYAQKFQGRVTITADESTSTAYMELSSLRSEDTAVYYCARSRPVRGAYYWGQGTLVTVSS VL: DIQMTQSPSSLSASVGDRVTITCRASQIVNSNYLNWYQQKPGKAPNLLIYGVSNLQVGVPSRFSGSGSGTDFTLSISSLQVEDSATYYCQQSYTTPRYSFGQGTKLEIRR	–	–	0.407	0.000195	480000
2021EP030-F02 scFv (scFv, V domains shown) VH: QVQLQESGPGLVKPSETLSLTCTVSGGSISSSSYYWGWIRQPPGKGLEWIGSIYYSGSTYYNPSLKSRVTISVDTSKNQFSLKLSSVTAADTAVYYCARQANQVVPAAIPWAKPGGTPPNWFDPWGQGTLVTVSS VL: QLVLTQPPSVSVAPGETARITCGGNNIGSKSVHWYQQKPGQAPVLVIYYDSARPSGIPERVSGSNSGNTATLTISRVEAGDEADYYCQVWDSSSDHPRVFGTGTKLTVL	2.97	0.194	1.85	0.000215	116000
2021EP030-C11 scFv (scFv, V domains shown) VH: QMQLVQSKPEVKKPGTSVKVSCKASGFTFTSSAVQWVRQARGQRLEWIGWIVVGSGNTNYAQKFQERVTITRDMSTSTAYMELSSLRSEDTAVYYCAADGDYDIEGALDYWGQGTLVTVSS VL: EIVLTQSPAILSLSPGERATLSCRASQSVSSYLAWYQQKPGQAPRLLIYDASNRATGIPARFSGSGSGTDFTLTISSLEPEDFAVYYCQQRSNWITFGGGTKVEIK	291	13	55.5	0.000262	4710
2020EP47-F02 scFv (scFv, V domains shown, also called EP047-F02) VH: QVQLQQWGAGLLKPSETLSLTCAVYGGSFSGYYWSWIRQPPGKGLEWIGEINHSGSTNYNPSLKSRVTISVDTSKNQFSLKLSSVTAADTAVYYCARGWYLGFDYWGQGTLVTVSS VL: QSVLTQPRSVSGSPGQSVTISCTGTSRDVGGYDYVSWYQQYPGKAPKLMISGVSERPSGVPDRFTGSRSANTASLTISGLQTDDEANYYCCSYAGSFTWVFGDGTKLTVL	–	4.51	–	–	–
2021EP030-B10 scFv (scFv, V domains shown) VH: QVQLVESGGDLVNPGRSLRLACTGAGFTFGDYAVSWFRQAPGKGLEWVGFIESKPYGETREYAASVRGRFTISRDDSKGIAYLQMNGLKTEDTGVYYCSSVVAWVAYWGQGTLVTVSS VL: AIQLTQSPSSLSASIGDRVTITCRASQSVTTYLNWYHQKPGKAPTFLIYGTSALQSGVPSRFSGSGSGTDFTLTISSLQPEDFGIYYCQQSYSLPPTFGGGTNVQIR	–	24.2	–	–	–
